Molecular target: endogenous PKM2 (human (endogenous in A549, PC9 and HEK293T)) (UniProt P14618)
Experiment: cross-linking

Sequence of endogenous PKM2, P14618 1-531 (natural protein; other documents disagree on this pair) (P14618 whole entry): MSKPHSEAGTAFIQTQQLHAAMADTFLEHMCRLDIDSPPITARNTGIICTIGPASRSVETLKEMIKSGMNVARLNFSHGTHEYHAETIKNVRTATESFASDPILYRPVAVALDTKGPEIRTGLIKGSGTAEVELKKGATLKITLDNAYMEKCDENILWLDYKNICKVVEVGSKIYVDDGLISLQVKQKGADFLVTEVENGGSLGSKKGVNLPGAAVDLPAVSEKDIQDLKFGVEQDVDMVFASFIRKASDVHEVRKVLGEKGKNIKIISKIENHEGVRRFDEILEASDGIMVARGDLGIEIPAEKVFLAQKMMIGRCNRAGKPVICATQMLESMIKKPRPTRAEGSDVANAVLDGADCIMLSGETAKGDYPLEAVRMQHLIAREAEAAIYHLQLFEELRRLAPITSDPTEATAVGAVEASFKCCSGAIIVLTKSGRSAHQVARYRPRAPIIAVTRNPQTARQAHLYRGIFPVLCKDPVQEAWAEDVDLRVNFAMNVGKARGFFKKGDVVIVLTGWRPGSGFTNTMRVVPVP

stoichiometry N: 2
Substance: endogenous PKM2, P14618 1-531 (natural protein; other documents disagree on this pair)

Source: paper PMC12374985
